From patent US9114109B2, “Five-coordinate neuroglobin and use thereof as a blood substitute” (University of Pittsburgh—Of the Commonwealth System of …, priority 2009, dated 2015)
Like-named read-outs stand apart in the source and are kept apart here.

Tests used:
[1] = tested on: isolated rat liver mitochondria; assay: Hypoxic inhibition of respiration of isolated mitochondria; assay type: cell-based; settings: for inhibition of respiration, incubated alone (in words): nitrite 20 μM or protein 5 μM alone; for inhibition of respiration (cyanide = 100%): 5 μM protein with 20 μM nitrite, hypoxia
Experimental: (§1) Mitochondria were isolated from the livers of male Sprague Dawley rats and incubated with wild-type or mutant Ngb proteins in a sealed, stirred chamber at 37° C. State 3 respiration was stimulated with succinate (15 mM) and ADP (1 mM) and oxygen consumption was measured with a Clark-type oxygen electrode. To measure inhibition of respiration in hypoxic conditions, respiring mitochondria were allowed to consume oxygen until the chamber became anoxic and then the chamber lid was removed to allow the diffusion of air back into the chamber. The rate of mitochondrial respiration was greater than the rate of oxygen entering the chamber such that the oxygen electrode trace remained at zero while the mitochondria were respiring. Nitrite was added to the chamber prior to the removal of the lid and deviation of the oxygen trace from a zero reading signified a decrease in respiration rate. All experiments were performed under conditions where substrates were not limiting. The extent of respiratory inhibition was quantified by measuring the time from equilibration of the mitochondria with air to the time when the oxygen trace deviated from zero. This time to inhibition was expressed as a percentage of maximal inhibition, where 100% inhibition was defined as the time to inhibition in the presence of cyanide and the time to the exhaustion of substrates was used as a measure of 0% inhibition. Similar experiments were performed with SHSY5Y cells suspended in the respirometer and treated with the uncoupler FCCP (5 μM) to measure hypoxic inhibition of cellular respiration.

[2] = cited from earlier work
[3] = Anaerobic reaction of deoxygenated globins with excess nitrite (nitrite reductase kinetics, absorption / stopped-flow spectroscopy); assay type: biochemical; settings: for rate of nitrite reduction (in words): cysteine to alanine mutants; for relative percentage of the total absorbance change (Soret peak 425 nm) in the first 60 minutes: 1 mM nitrite, 0.1 M HEPES pH 7.4, H64L-Ngb normalized to 100%
Experimental: Oxygen contamination was prevented by application of positive argon pressure without a channel for gas escape. Concentrations of single species during reactions were determined by least squares deconvolution of the visible absorption spectrum into standard reference spectra using Microsoft Excel analysis. OxyNgb was included to confirm successful deoxygenation before the reaction. […] Fast kinetic studies were performed using an Applied Photophysics DX-17 stopped-flow instrument equipped with rapid-scanning diode array detection. […] To determine bimolecular rate constants all reactions were analyzed with Pro-K software (Applied Photophysics) using singular value decomposition followed by fitting of the reduced data matrix to a pseudo-first order kinetic model.

[4] = Determination of nitrite binding constants to met-Ngb (difference spectra titration); settings: met-Ngb 10 μM, 200 mM phosphate buffer, pH 7.4, 25° C.; read-out: Kd (NO2^−)
Experimental: To determine the binding constant of nitrite to metNgb, 10 μM wild type and mutant Ngb in 200 mM phosphate buffer, pH 7.4, were incubated in a cuvette at 25° C. with increasing concentrations of nitrite and the UV—visible spectra were recorded after each increase in nitrite concentration. The constant KD for each protein was determined by interpolation of the absorbance data following procedures in Nicolis et al. (Biochem J 407:89-99, 2007).

[5] = EPR spectroscopy of iron-nitrosyl-heme formation from nitrite; assay type: biochemical; settings: 1 mM nitrite, 40±5 μM protein
Experimental: Iron nitrosyl species were measured by EPR spectroscopy using a Bruker EMX 10/12 spectrometer operating at 9.4 GHz, 5-G modulation, 10.1-milliwatt power, 327.68-ms time constant and 163.84-s scan over 600 G at 110 K as described previously (Basu et al., J Biol Chem 283:32590-32597, 2008; Azarov et al., J. Biol. Chem. 280:[…], 2005). The concentrations of Mb and Ngb species were determined by performing the double integral calculation and comparing to standard samples.

[6] = Reaction of met-Ngb with nitrite to produce nitrosyl-Ngb (nitrite ferric heme reduction); assay type: biochemical; settings: met-Ngb with nitrite in the presence of dithionite
[7] = Direct measurement of NO release in gas phase (chemiluminescence); assay type: biochemical; settings: 20 μM Ngb, 1 mM nitrite, anaerobic
Source text: Once a stable baseline was established Ngb was reacted with a known amount of nitrite as previously described (Huang et al., J Clin Invest 115:2099-2107, 2005).

[8] = Midpoint redox potential of the thiol/disulfide couple in Ngb (GSH/GSSG gradient, Nernst fit of kobs); assay type: physicochemical; settings: 37° C., 0.1 M phosphate buffer pH 7.0, GSH/GSSG
Experimental: Wild-type and C55A mutant Ngb (50-60 μM) were incubated at 37° C. in anaerobic glove box with solutions containing various ratios of reduced (GSH) and oxidized (GSSG) glutathione, with the total GSH and GSSG concentration fixed at 25 mM in 0.1 M phosphate buffer pH=7.0. The GSH/GSSG ratio was varied to establish a gradient of redox potentials between −130 and −250 mV, calculated by the Nernst equation according to a midpoint reduction potential of −240 mV (Yi et al., J Biol Chem 284:20556-20561, 2009). After at least 1 hour incubation, glutathione was removed by passage through a G25 column and Ngb was reacted immediately with 10 mM nitrite in 0.1 M phosphate buffer pH=7.0 as described above. The observed rate constant determined at each glutathione ratio was fitted using the Nernst equation and the midpoint reduction potential of the thiol/disulfide couple of Ngb calculated.

[9] = tested on: SHSY5Y cells; assay: Hypoxic inhibition of cellular respiration in SHSY5Y cells expressing Ngb; assay type: cell-based; settings: cells stably transfected with GFP-tagged Ngb, nitrite added, FCCP
Experimental: as §1, with “Similar experiments were performed with SHSY5Y cells suspended in the respirometer and treated with the uncoupler FCCP (5 μM) to measure hypoxic inhibition of cellular respiration.” left out

[10] = cited from earlier work; remark: listed apart in the source
[11] = nitrite 7-230 μM; cited from earlier work

O=NO [nitrite, reference compound]
inhibition of respiration, incubated alone (in words) [1]: No significant inhibition

B1: neuroglobin: heme containing, monomeric, 16.9 kDa protein; literature values of the background section (protein, listed as Homo sapiens)
chain: MERPEPELIRQSWRAVSRSPLEHGTVLFARLFALEPDLLPLFQYNCRQFSSPEDCLSSPEFLDHIRKVMLVIDAAVTNVEDLSSLEEYLASLGRKHRAVGVKLSSFSTVGESLLYMLEKCLGPAFTPATRAAWSQLYGAVVQAMSRGWDGE
oxygen affinity P50 ([2]; 20° C.): 1-2 mmHg | oxygen affinity P50 ([2]; after disulfide bond formation): ~1 mmHg | oxygen affinity P50 ([2]; before disulfide bond formation): about 9 mmHg

B2: C46A: recombinant human neuroglobin mutant with cysteine 46 replaced by alanine (protein, UniProt Q9NPG2 1-151, looked up, variant C46A)
Neuroglobin: MERPEPELIRQSWRAVSRSPLEHGTVLFARLFALEPDLLPLFQYNARQFSSPEDCLSSPEFLDHIRKVMLVIDAAVTNVEDLSSLEEYLASLGRKHRAVGVKLSSFSTVGESLLYMLEKCLGPAFTPATRAAWSQLYGAVVQAMSRGWDGE
rate of nitrite reduction (in words) [3]: slowed down the rate of nitrite reduction to similar rates observed with Ngb having fully reduced cysteines

B3: WT SH: wild-type human neuroglobin without disulfide bond, cysteines reduced by incubation with 10 mM DTT (protein, UniProt Q9NPG2 1-151, looked up)
Neuroglobin: MERPEPELIRQSWRAVSRSPLEHGTVLFARLFALEPDLLPLFQYNCRQFSSPEDCLSSPEFLDHIRKVMLVIDAAVTNVEDLSSLEEYLASLGRKHRAVGVKLSSFSTVGESLLYMLEKCLGPAFTPATRAAWSQLYGAVVQAMSRGWDGE
modifications: cysteines reduced with DTT
notes: wild-type human neuroglobin without disulfide bond, cysteines reduced by incubation with 10 mM DTT
Kd [4]: 12.6 ± 3.3 mM | relative percentage of the total absorbance change (Soret peak 425 nm) in the first 60 minutes [3]: 20% | rate of nitrite reduction after reduction of the disulfide bond ([3]; cysteines reduced with 10 mM DTT, 25° C., pH 7.4): 0.062 ± 0.005 M⁻¹ s⁻¹ | slowing of nitrite reduction rate by reduction of the disulfide bond ([3]; relative to oxidized wild type, 25° C., pH 7.4): about 2 fold | rate of iron-nitrosyl-Ngb / NO formation by EPR (in words) [5]: slowed the rate of iron-nitrosyl-Ngb formation | BRC of nitrite ferric heme reduction [6]: 0.0002 ± 0.0005

B4: C55A: recombinant human neuroglobin mutant with cysteine 55 replaced by alanine, six-coordinate (protein, UniProt Q9NPG2 1-151, looked up, variant C55A)
Neuroglobin: MERPEPELIRQSWRAVSRSPLEHGTVLFARLFALEPDLLPLFQYNCRQFSSPEDALSSPEFLDHIRKVMLVIDAAVTNVEDLSSLEEYLASLGRKHRAVGVKLSSFSTVGESLLYMLEKCLGPAFTPATRAAWSQLYGAVVQAMSRGWDGE
Kd [4]: 30.1 ± 4.5 mM | inhibition of respiration (cyanide = 100%) [1]: 62±4% | relative percentage of the total absorbance change (Soret peak 425 nm) in the first 60 minutes [3]: 18% | rate of nitrite reduction (in words) [3]: slowed down the rate of nitrite reduction to similar rates observed with Ngb having fully reduced cysteines | BRC of nitrite ferric heme reduction [6]: 0.0002 ± 0.0005 | rate of NO detected in gas phase (in words) [7]: significantly decreased

B5: WT SS: recombinant wild-type human neuroglobin (SEQ ID NO: 8), as purified with the C46-C55 disulfide bond formed (protein, listed as Homo sapiens)
chain: MERPEPELIRQSWRAVSRSPLEHGTVLFARLFALEPDLLPLFQYNCRQFSSPEDCLSSPEFLDHIRKVMLVIDAAVTNVEDLSSLEEYLASLGRKHRAVGVKLSSFSTVGESLLYMLEKCLGPAFTPATRAAWSQLYGAVVQAMSRGWDGE
modifications: C46-C55 disulfide
Kd [4]: 6.2 ± 2.1 mM | midpoint redox potential of the C46/C55 thiol/disulfide couple [8]: −194±3 mV | inhibition of respiration (cyanide = 100%) [1]: 78±6% | inhibition of respiration, incubated alone (in words) [1]: No significant inhibition | relative percentage of the total absorbance change (Soret peak 425 nm) in the first 60 minutes [3]: 38% | calculated BRC in the presence of dithionite ([3]; 10 mM nitrite, 10 μM deoxy-Ngb, 3 mM dithionite, pH 7.4, 100 mM phosphate buffer): 0.11 ± 0.01 M⁻¹ s⁻¹ | second-order bimolecular rate constant from linear fit of kobs versus nitrite concentration ([3]; nitrite 0.25-20 mM, 100 mM phosphate buffer, 25° C.): 0.12 ± 0.02 M⁻¹ s⁻¹ | acceleration of the reaction for each pH unit decrease ([3]; pH 6.5-8.0): 10 fold | slope of linear fit, order of rate dependence on [H^+] ([3]; pH 6.5-8.0): 0.96 | instantaneous bimolecular rate constant (BRC) of reaction of nitrite with Ngb ([3]; pH 7.4, 25° C., 10 μM deoxy-Ngb, 10 mM nitrite, no dithionite): 0.12 ± 0.02 M⁻¹ s⁻¹ | instantaneous bimolecular rate constant (BRC) of reaction of nitrite with Ngb ([3]; pH 7.4, 37° C.): 0.26 ± 0.02 M⁻¹ s⁻¹ | BRC of nitrite ferric heme reduction [6]: 0.0005 ± 0.0005 | extent of respiration inhibition compared to cyanide [9]: about 15% | kon of NO for the ferrous Ngb heme [10]: 10^8 M^−1 s^−1

B6: mouse neuroglobin: deoxy mouse neuroglobin of a cited study (Petersen et al., 2008) (protein, UniProt Q9ER97 1-151, looked up)
Neuroglobin: MERPESELIRQSWRVVSRSPLEHGTVLFARLFALEPSLLPLFQYNGRQFSSPEDCLSSPEFLDHIRKVMLVIDAAVTNVEDLSSLEEYLTSLGRKHRAVGVRLSSFSTVGESLLYMLEKCLGPDFTPATRTAWSRLYGAVVQAMSRGWDGE
apparent second-order rate constant [11]: 5.1 ± 0.4 M⁻¹ s⁻¹

B7: Myoglobin: horse heart myoglobin, purified by Sephadex G-25 gel filtration (protein, UniProt P68082 2-154, looked up)
Myoglobin: GLSDGEWQQVLNVWGKVEADIAGHGQEVLIRLFTGHPETLEKFDKFKHLKTEAEMKASEDLKKHGTVVLTALGGILKKKGHHEAELKPLAQSHATKHKIPIKYLEFISDAIIHVLHSKHPGDFGADAQGAMTKALELFRNDIAAKYKELGFQG
BRC of myoglobin reaction with nitrite ([3]; 100 mM phosphate buffer with EDTA, pH 7.4, 25° C.): 2.9 ± 0.2 M⁻¹ s⁻¹
